Reference: patent publication US20210023094A1 (PSMA DEVELOPMENT, published 2021)

B1: PSMA ADC (AB-PG1-XG1-006 conjugated to maleimidocaproyl-valine-citrulline-p-aminobenzylcarbamate-monomethyl auristatin E), Example 1 (antibody, V domains shown)
VH: QVQLVESGGGVVQPGRSLRLSCAASGFAFSRYGMHWVRQAPGKGLEWVAVIWYDGSNKYYADSVKGRFTISRDNSKNTQYLQMNSLRAEDTAVYYCARGGDFLYYYYYGMDVWGQGTTVTVSS
VL: DIQMTQSPSSLSASVGDRVTITCRASQGISNYLAWYQQKTGKVPKFLIYEASTLQSGVPSRFSGGGSGTDFTLTISSLQPEDVATYYCQNYNSAPFTFGPGTKVDIK
modifications: vcMMAE on cysteine thiols of reduced disulfides; 3.0-3.5 drugs per mAb in total
B2: PSMA mAb vcMMAF (conjugate 699028B), Example 2 (antibody, V domains shown)
VH: B1 VH
VL: B1 VL
modifications: vcMMAF via thioether on interchain cysteine thiols; 4.4 drugs per mAb in total
B3: PSMA mAb mcMMAF (conjugate 699028C), Example 2 (antibody, V domains shown)
VH: B1 VH
VL: B1 VL
modifications: mcMMAF via thioether on interchain cysteine thiols; 4.4 drugs per mAb in total
B4: PSMA mAb vcMMAE (conjugate 699028A), Example 2 (antibody, V domains shown)
VH: B1 VH
VL: B1 VL
modifications: vcMMAE via thioether on interchain cysteine thiols; 4.3 drugs per mAb in total

Assays:
[1] = target: T1, prostate-specific membrane antigen (PSMA), on cells (3T3-PSMA, C4-2, LNCaP) (Homo sapiens (Human), UniProt Q04609 1-750); test: cell-based or functional assay
T1 sequence (Q04609 whole entry): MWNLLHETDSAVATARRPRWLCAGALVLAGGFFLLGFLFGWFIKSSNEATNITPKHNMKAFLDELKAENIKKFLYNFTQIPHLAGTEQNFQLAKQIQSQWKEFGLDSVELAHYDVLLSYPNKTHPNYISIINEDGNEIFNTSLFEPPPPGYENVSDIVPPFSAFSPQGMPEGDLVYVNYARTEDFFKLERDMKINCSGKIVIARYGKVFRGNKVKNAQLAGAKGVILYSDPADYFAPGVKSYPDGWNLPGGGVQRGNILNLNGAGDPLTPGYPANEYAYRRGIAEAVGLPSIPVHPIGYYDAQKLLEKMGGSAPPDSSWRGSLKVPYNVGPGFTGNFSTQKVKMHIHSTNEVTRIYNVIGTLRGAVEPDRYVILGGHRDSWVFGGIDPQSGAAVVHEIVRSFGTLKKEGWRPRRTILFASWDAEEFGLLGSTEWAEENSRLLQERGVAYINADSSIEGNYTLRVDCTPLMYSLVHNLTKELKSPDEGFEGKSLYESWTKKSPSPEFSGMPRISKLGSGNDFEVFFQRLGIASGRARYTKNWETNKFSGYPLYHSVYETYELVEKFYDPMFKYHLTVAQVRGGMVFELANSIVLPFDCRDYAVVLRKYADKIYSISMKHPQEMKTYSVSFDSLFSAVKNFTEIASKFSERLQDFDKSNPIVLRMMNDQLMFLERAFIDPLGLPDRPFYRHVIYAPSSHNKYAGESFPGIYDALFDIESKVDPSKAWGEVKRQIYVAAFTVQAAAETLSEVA

[2] = target: T1, prostate-specific membrane antigen …; test: cell-based or functional assay; remark: listed apart in the source

Binder | in vitro cytotoxicity IC50 on 3T3-PSMA cells (Alamar Blue, 4 days) [1] [pM] | in vitro cytotoxicity IC50 on C4-2 cells (Alamar Blue, 4 days) [1] [pM] | in vitro cytotoxicity IC50 on LNCaP cells (Alamar Blue, 4 days) [1] [pM] | in vitro potency IC50 on C4-2 cells (Alamar Blue, 4 days) [2] [pM]
B1 | 208 | 65 | 83 | –
B2 | – | – | – | 11
B3 | – | – | – | 42
B4 | – | – | – | 60
